The test system of the assay is KDM4A-I71AzF. Put plainly: CASI: photo-crosslinking with HEK293T cell extracts, StrepTactin enrichment and LC-MS/MS proteomics.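 Also: lysates from HEK293T cells pretreated with a KDM4 inhibitor to raise proteome methylation, affinity-purified after ±UV, gel-resolved, trypsin-digested, with exclusive unique peptides per protein averaged per condition.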 Format: binding, human. Particulars: sheet "Final results but with 0.01".

B1: GTF2I_HUMAN (protein, UniProt P78347 2-998, looked up)
General transcription factor …: AQVAMSTLPVEDEESSESRMVVTFLMSALESMCKELAKSKAEVACIAVYETDVFVVGTERGRAFVNTRKDFQKDFVKYCVEEEEKAAEMHKMKSTTQANRMSVDAVEIETLRKTVEDYFCFCYGKALGKSTVVPVPYEKMLRDQSAVVVQGLPEGVAFKHPENYDLATLKWILENKAGISFIIKRPFLEPKKHVGGRVMVTDADRSILSPGGSCGPIKVKTEPTEDSGISLEMAAVTVKEESEDPDYYQYNIQAGPSETDDVDEKQPLSKPLQGSHHSSEGNEGTEMEVPAEDSTQHVPSETSEDPEVEVTIEDDDYSPPSKRPKANELPQPPVPEPANAGKRKVREFNFEKWNARITDLRKQVEELFERKYAQAIKAKGPVTIPYPLFQSHVEDLYVEGLPEGIPFRRPSTYGIPRLERILLAKERIRFVIKKHELLNSTREDLQLDKPASGVKEEWYARITKLRKMVDQLFCKKFAEALGSTEAKAVPYQKFEAHPNDLYVEGLPENIPFRSPSWYGIPRLEKIIQVGNRIKFVIKRPELLTHSTTEVTQPRTNTPVKEDWNVRITKLRKQVEEIFNLKFAQALGLTEAVKVPYPVFESNPEFLYVEGLPEGIPFRSPTWFGIPRLERIVRGSNKIKFVVKKPELVISYLPPGMASKINTKALQSPKRPRSPGSNSKVPEIEVTVEGPNNNNPQTSAVRTPTQTNGSNVPFKPRGREFSFEAWNAKITDLKQKVENLFNEKCGEALGLKQAVKVPFALFESFPEDFYVEGLPEGVPFRRPSTFGIPRLEKILRNKAKIKFIIKKPEMFETAIKESTSSKSPPRKINSSPNVNTTASGVEDLNIIQVTIPDDDNERLSKVEKARQLREQVNDLFSRKFGEAIGMGFPVKVPYRKITINPGCVVVDGMPPGVSFKAPSYLEISSMRRILDSAEFIKFTVIRPFPGLVINNQLVDQSESEGPVIQESAEPSQLEVPATEEIKETDGSSQIKQEPDPTW
In the case of B1, the “Fold change (+UV/-UV)” value worked out at 3.

B2: DHX30_HUMAN (protein, UniProt Q7L2E3 1-1194, looked up)
ATP-dependent RNA helicase …: MFSLDSFRKDRAQHRQRQCKLPPPRLPPMCVNPTPGGTISRASRDLLKEFPQPKNLLNSVIGRALGISHAKDKLVYVHTNGPKKKKVTLHIKWPKSVEVEGYGSKKIDAERQAAAAACQLFKGWGLLGPRNELFDAAKYRVLADRFGSPADSWWRPEPTMPPTSWRQLNPESIRPGGPGGLSRSLGREEEEDEEEELEEGTIDVTDFLSMTQQDSHAPLRDSRGSSFEMTDDDSAIRALTQFPLPKNLLAKVIQIATSSSTAKNLMQFHTVGTKTKLSTLTLLWPCPMTFVAKGRRKAEAENKAAALACKKLKSLGLVDRNNEPLTHAMYNLASLRELGETQRRPCTIQVPEPILRKIETFLNHYPVESSWIAPELRLQSDDILPLGKDSGPLSDPITGKPYVPLLEAEEVRLSQSLLELWRRRGPVWQEAPQLPVDPHRDTILNAIEQHPVVVISGDTGCGKTTRIPQLLLERYVTEGRGARCNVIITQPRRISAVSVAQRVSHELGPSLRRNVGFQVRLESKPPSRGGALLFCTVGILLRKLQSNPSLEGVSHVIVDEVHERDVNTDFLLILLKGLQRLNPALRLVLMSATGDNERFSRYFGGCPVIKVPGFMYPVKEHYLEDILAKLGKHQYLHRHRHHESEDECALDLDLVTDLVLHIDARGEPGGILCFLPGWQEIKGVQQRLQEALGMHESKYLILPVHSNIPMMDQKAIFQQPPVGVRKIVLATNIAETSITINDIVHVVDSGLHKEERYDLKTKVSCLETVWVSRANVIQRRGRAGRCQSGFAYHLFPRSRLEKMVPFQVPEILRTPLENLVLQAKIHMPEKTAVEFLSKAVDSPNIKAVDEAVILLQEIGVLDQREYLTTLGQRLAHISTDPRLAKAIVLAAIFRCLHPLLVVVSCLTRDPFSSSLQNRAEVDKVKALLSHDSGSDHLAFVRAVAGWEEVLRWQDRSSRENYLEENLLYAPSLRFIHGLIKQFSENIYEAFLVGKPSDCTLASAQCNEYSEEEELVKGVLMAGLYPNLIQVRQGKVTRQGKFKPNSVTYRTKSGNILLHKSTINREATRLRSRWLTYFMAVKSNGSVFVRDSSQVHPLAVLLLTDGDVHIRDDGRRATISLSDSDLLRLEGDSRTVRLLKELRRALGRMVERSLRSELAALPPSVQEEHGQLLALLAELLRGPCGSFDVRKTADD
As for B2, the “Fold change (+UV/-UV)” value is given as 0.75.

B3: SF3B2_HUMAN (protein, UniProt Q13435 1-895, looked up)
Splicing factor 3B subunit 2: MATEHPEPPKAELQLPPPPPPGHYGAWAAQELQAKLAEIGAPIQGNREELVERLQSYTRQTGIVLNRPVLRGEDGDKAAPPPMSAQLPGIPMPPPPLGLPPLQPPPPPPPPPPGLGLGFPMAHPPNLGPPPPLRVGEPVALSEEERLKLAQQQAALLMQQEERAKQQGDHSLKEHELLEQQKRAAVLLEQERQQEIAKMGTPVPRPPQDMGQIGVRTPLGPRVAAPVGPVGPTPTVLPMGAPVPRPRGPPPPPGDENREMDDPSVGPKIPQALEKILQLKESRQEEMNSQQEEEEMETDARSSLGQSASETEEDTVSVSKKEKNRKRRNRKKKKKPQRVRGVSSESSGDREKDSTRSRGSDSPAADVEIEYVTEEPEIYEPNFIFFKRIFEAFKLTDDVKKEKEKEPEKLDKLENSAAPKKKGFEEEHKDSDDDSSDDEQEKKPEAPKLSKKKLRRMNRFTVAELKQLVARPDVVEMHDVTAQDPKLLVHLKATRNSVPVPRHWCFKRKYLQGKRGIEKPPFELPDFIKRTGIQEMREALQEKEEQKTMKSKMREKVRPKMGKIDIDYQKLHDAFFKWQTKPKLTIHGDLYYEGKEFETRLKEKKPGDLSDELRISLGMPVGPNAHKVPPPWLIAMQRYGPPPSYPNLKIPGLNSPIPESCSFGYHAGGWGKPPVDETGKPLYGDVFGTNAAEFQTKTEEEEIDRTPWGELEPSDEESSEEEEEEESDEDKPDETGFITPADSGLITPGGFSSVPAGMETPELIELRKKKIEEAMDGSETPQLFTVLPEKRTATVGGAMMGSTHIYDMSTVMSRKGPAPELQGVEVALAPEELELDPMAMTQKYEEHVREQQAQVEKEDFSDMVAEHAAKQKQKKRKAQPQDSRGGSKKYKEFKF
With B3, the “Fold change (+UV/-UV)” value worked out at 0.7273.

B4: SMC3_HUMAN (protein, UniProt Q9UQE7 1-1217, looked up)
Structural maintenance of …: MYIKQVIIQGFRSYRDQTIVDPFSSKHNVIVGRNGSGKSNFFYAIQFVLSDEFSHLRPEQRLALLHEGTGPRVISAFVEIIFDNSDNRLPIDKEEVSLRRVIGAKKDQYFLDKKMVTKNDVMNLLESAGFSRSNPYYIVKQGKINQMATAPDSQRLKLLREVAGTRVYDERKEESISLMKETEGKREKINELLKYIEERLHTLEEEKEELAQYQKWDKMRRALEYTIYNQELNETRAKLDELSAKRETSGEKSRQLRDAQQDARDKMEDIERQVRELKTKISAMKEEKEQLSAERQEQIKQRTKLELKAKDLQDELAGNSEQRKRLLKERQKLLEKIEEKQKELAETEPKFNSVKEKEERGIARLAQATQERTDLYAKQGRGSQFTSKEERDKWIKKELKSLDQAINDKKRQIAAIHKDLEDTEANKEKNLEQYNKLDQDLNEVKARVEELDRKYYEVKNKKDELQSERNYLWREENAEQQALAAKREDLEKKQQLLRAATGKAILNGIDSINKVLDHFRRKGINQHVQNGYHGIVMNNFECEPAFYTCVEVTAGNRLFYHIVDSDEVSTKILMEFNKMNLPGEVTFLPLNKLDVRDTAYPETNDAIPMISKLRYNPRFDKAFKHVFGKTLICRSMEVSTQLARAFTMDCITLEGDQVSHRGALTGGYYDTRKSRLELQKDVRKAEEELGELEAKLNENLRRNIERINNEIDQLMNQMQQIETQQRKFKASRDSILSEMKMLKEKRQQSEKTFMPKQRSLQSLEASLHAMESTRESLKAELGTDLLSQLSLEDQKRVDALNDEIRQLQQENRQLLNERIKLEGIITRVETYLNENLRKRLDQVEQELNELRETEGGTVLTATTSELEAINKRVKDTMARSEDLDNSIDKTEAGIKELQKSMERWKNMEKEHMDAINHDTKELEKMTNRQGMLLKKKEECMKKIRELGSLPQEAFEKYQTLSLKQLFRKLEQCNTELKKYSHVNKKALDQFVNFSEQKEKLIKRQEELDRGYKSIMELMNVLELRKYEAIQLTFKQVSKNFSEVFQKLVPGGKATLVMKKGDVEGSQSQDEGEGSGESERGSGSQSSVPSVDQFTGVGIRVSFTGKQGEMREMQQLSGGQKSLVALALIFAIQKCDPAPFYLFDEIDQALDAQHRKAVSDMIMELAVHAQFITTTFRPELLESADKFYGVKFRNKVSHIDVITAEMAKDFVEDDTTHG
With B4, the “Fold change (+UV/-UV)” value was determined as 0.375.
